Molecular target: T1, mouse CD206 extracellular domain fused to a myc tag and the PDGFRβ transmembrane domain, displayed on MetBo2 … (Mus musculus (cDNA of IL-4 treated …))
T1 construct: transmembrane domain of the human platelet-derived growth factor receptor (PDGFRβ); the methods name only myc; also called CD206 ECD; CD206 ECD construct; source: MetBo2 cells, transiently transfected (CMV promoter), on cells
T1 chain: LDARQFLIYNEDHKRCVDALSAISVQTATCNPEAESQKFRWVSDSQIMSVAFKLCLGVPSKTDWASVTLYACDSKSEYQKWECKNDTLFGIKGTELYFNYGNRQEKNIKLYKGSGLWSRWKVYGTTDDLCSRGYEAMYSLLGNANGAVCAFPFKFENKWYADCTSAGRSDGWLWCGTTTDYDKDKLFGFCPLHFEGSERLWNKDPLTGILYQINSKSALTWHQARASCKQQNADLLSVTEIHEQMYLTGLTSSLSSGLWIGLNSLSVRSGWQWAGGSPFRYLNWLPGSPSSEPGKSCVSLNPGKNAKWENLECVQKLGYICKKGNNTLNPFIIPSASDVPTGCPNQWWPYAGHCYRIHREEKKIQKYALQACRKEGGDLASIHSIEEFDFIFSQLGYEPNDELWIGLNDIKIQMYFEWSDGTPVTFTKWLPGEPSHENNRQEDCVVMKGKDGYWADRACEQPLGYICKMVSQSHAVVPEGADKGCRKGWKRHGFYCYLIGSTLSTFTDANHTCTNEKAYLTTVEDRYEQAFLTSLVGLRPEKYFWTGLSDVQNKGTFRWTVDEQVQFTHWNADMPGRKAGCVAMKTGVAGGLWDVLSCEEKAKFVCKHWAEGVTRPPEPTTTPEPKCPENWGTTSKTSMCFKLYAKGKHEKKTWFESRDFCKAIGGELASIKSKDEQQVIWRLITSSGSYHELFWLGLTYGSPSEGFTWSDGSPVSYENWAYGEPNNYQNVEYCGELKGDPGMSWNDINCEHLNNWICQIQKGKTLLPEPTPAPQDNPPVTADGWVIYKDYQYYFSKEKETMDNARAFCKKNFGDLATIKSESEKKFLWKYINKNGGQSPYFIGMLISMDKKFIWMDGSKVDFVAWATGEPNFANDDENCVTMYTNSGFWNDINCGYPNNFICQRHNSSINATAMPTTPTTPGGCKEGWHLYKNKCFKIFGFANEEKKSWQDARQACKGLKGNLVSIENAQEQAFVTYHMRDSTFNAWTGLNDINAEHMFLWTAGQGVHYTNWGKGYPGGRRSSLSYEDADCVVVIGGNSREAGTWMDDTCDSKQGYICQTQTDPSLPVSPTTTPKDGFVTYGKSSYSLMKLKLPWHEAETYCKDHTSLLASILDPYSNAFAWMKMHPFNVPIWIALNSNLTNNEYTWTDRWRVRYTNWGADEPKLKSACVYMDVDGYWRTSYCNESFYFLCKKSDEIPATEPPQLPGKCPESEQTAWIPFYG
Test: immunostaining of cells or tissue; supernatant of HEK293FT cells with αCD206-mNeonGreen chromobody put on MetBo2 cells transiently expressing the CD206 ECD construct; 4 °C overnight in the dark; fluorescence microscopy (methods: fixed cells; legend: live cells)
Conditions: partners not purified

binding result: binds
B1: αCD206-mNeonGreen chromobody (αCD206 VHH fused to mNeonGreen) (VHH)
VHH: QVQLQESGGGLVQPGGSLRLSCAASGNIFSINAIGWYRQAPGKQRELVATITLSGSTNYADSVKGRFSISRDNAKNTVYLQMNSLKPEDTAVYYCNANTYSDSDVYGYWGQGTQVTVSS
notes: also called αCD206 chromobodies; αCD206 nanobody; source: HEK293FT, transiently transfected; cell-free culture supernatant used unpurified
